Patent publication US20250066503A1, “CELL INJURY INDUCING THERAPEUTIC DRUG FOR USE IN CANCER THERAPY” (CHUGAI SEIYAKU KABUSHIKI KAISHA, priority 2016, published 2025)

B1: GPC3_ERY22_rCE115: heterodimeric bispecific antibody of GL4-ERY22_Hk, H0000-ERY22_L, rCE115H-ERY22_Hh, rCE115L-k0 (SEQ ID NOs: 47-50) (antibody)
heavy 1: DIVMTQSPLSLPVTPGEPASISCRSSQSLVHSNRNTYLHWYQQKPGQAPRLLIYKVSNRFSGVPDRFSGSGSGTDFTLKISRVEAEDVGVYYCSQNTHVPPTFGQGTKLEIKSSASTKGPSVFPLAPSSKSTSGGTAALGCLVKDYFPEPVTVSWNSGALTSGVHTFPAVLQSSGLYSLSSVVTVPSSSLGTQTYICNVNHKPSNTKVDKKVEPKSCDKTHTCPPCPAPEAAGGPSVFLFPPKPKDTLMISRTPEVTCVVVDVSHEDPEVKFNWYVDGVEVHNAKTKPREEQYASTYRVVSVLTVLHQDWLNGKEYKCKVSNKALPAPIEKTISKAKGQPREPQVCTLPPSRDELTKNQVSLWCLVKGFYPSDIAVEWESNGQPENNYKTTPPVLDSDGSFFLYSKLTVDKSRWQQGNVFSCSVMHEALHNHYTQKSLSLSPHHHHHHHH
light 1: QVQLVQSGAEVKKPGASVKVSCKASGYTFTDYEMHWIRQPPGQGLEWIGAIDPKTGDTAYSQKFKGRVTLTADKSTSTAYMELSSLTSEDTAVYYCTRFYSYTYWGQGTLVTVSSASVAAPSVFIFPPSDEQLKSGTASVVCLLNNFYPREAKVQWKVDNALQSGNSQESVTEQDSKDSTYSLSSTLTLSKADYEKHKVYACEVTHQGLSSPVTKSFNRGEC
heavy 2: EVQLVETGGSLVQPGKSLKLTCATSGFTFSNAWMHWVRQSPEKQLEWVAQIKAKSNNYATYYAESVKGRFTISRDDSKSNIYLQMNSLKEEDTAVYYCRYVHYGAYYGVDAWGQGTSVTVSSASTKGPSVFPLAPSSKSTSGGTAALGCLVKDYFPEPVTVSWNSGALTSGVHTFPAVLQSSGLYSLSSVVTVPSSSLGTQTYICNVNHKPSNTKVDKKVEPKSCDKTHTCPPCPAPEAAGGPSVFLFPPKPKDTLMISRTPEVTCVVVDVSHEDPEVKFNWYVDGVEVHNAKTKPREEQYASTYRVVSVLTVLHQDWLNGKEYKCKVSNKALPAPIEKTISKAKGQPREPQVYTLPPSRCELTKNQVSLSCAVKGFYPSDIAVEWESNGQPENNYKTTPPVLDSDGSFFLVSKLTVDKSRWQQGNVFSCSVMHEALHNHYTQKSLSLSPDYKDDDDK
light 2: DVVMTQTPVSMSVSLGGQVSISCRSSQSLVHNNGNTYVSWYIQKPSQSPQLLIYKVSNRFSGISDRFSGSGSGTDFTLKISRVEPDDLGVYYCGQGTQDPYTFGAGTKLELKRTVAAPSVFIFPPSDEQLKSGTASVVCLLNNFYPREAKVQWKVDNALQSGNSQESVTEQDSKDSTYSLSSTLTLSKADYEKHKVYACEVTHQGLSSPVTKSFNRGEC
modifications: An artificially generated sequence
B2: antibody-1: anti-human CD3ε chain and anti-human GPC3 bispecific antibody (antibody)
heavy: EVQLVETGGSLVQPGKSLKLTCATSGFTFSNAWMHWVRQSPEKQLEWVAQIKAKSNNYATYYAESVKGRFTISRDDSKSNIYLQMNSLKEEDTAVYYCRYVHYGAYYGVDAWGQGTSVTVSSASTKGPSVFPLAPSSKSTSGGTAALGCLVKDYFPEPVTVSWNSGALTSGVHTFPAVLQSSGLYSLSSVVTVPSSSLGTQTYICNVNHKPSNTKVDKKVEPKSCDKTHTCPPCPAPEAAGGPSVFLFPPKPKDTLMISRTPEVTCVVVDVSHEDPEVKFNWYVDGVEVHNAKTKPREEQYASTYRVVSVLTVLHQDWLNGKEYKCKVSNKALPAPIEKTISKAKGQPREPQVYTLPPSRCELTKNQVSLSCAVKGFYPSDIAVEWESNGQPENNYKTTPPVLDSDGSFFLVSKLTVDKSRWQQGNVFSCSVMHEALHNHYTQKSLSLSPDYKDDDDK
light: DVVMTQTPVSMSVSLGGQVSISCRSSQSLVHNNGNTYVSWYIQKPSQSPQLLIYKVSNRFSGISDRFSGSGSGTDFTLKISRVEPDDLGVYYCGQGTQDPYTFGAGTKLELKRTVAAPSVFIFPPSDEQLKSGTASVVCLLNNFYPREAKVQWKVDNALQSGNSQESVTEQDSKDSTYSLSSTLTLSKADYEKHKVYACEVTHQGLSSPVTKSFNRGEC
chain 1: DIVMTQSPLSLPVTPGEPASISCRSSQSLVHSNRNTYLHWYQQKPGQAPRLLIYKVSNRFSGVPDRFSGSGSGTDFTLKISRVEAEDVGVYYCSQNTHVPPTFGQGTKLEIKSSASTKGPSVFPLAPSSKSTSGGTAALGCLVKDYFPEPVTVSWNSGALTSGVHTFPAVLQSSGLYSLSSVVTVPSSSLGTQTYICNVNHKPSNTKVDKKVEPKSCDKTHTCPPCPAPEAAGGPSVFLFPPKPKDTLMISRTPEVTCVVVDVSHEDPEVKFNWYVDGVEVHNAKTKPREEQYASTYRVVSVLTVLHQDWLNGKEYKCKVSNKALPAPIEKTISKAKGQPREPQVCTLPPSRDELTKNQVSLWCLVKGFYPSDIAVEWESNGQPENNYKTTPPVLDSDGSFFLYSKLTVDKSRWQQGNVFSCSVMHEALHNHYTQKSLSLSPHHHHHHHH
chain 2: QVQLVQSGAEVKKPGASVKVSCKASGYTFTDYEMHWIRQPPGQGLEWIGAIDPKTGDTAYSQKFKGRVTLTADKSTSTAYMELSSLTSEDTAVYYCTRFYSYTYWGQGTLVTVSSASVAAPSVFIFPPSDEQLKSGTASVVCLLNNFYPREAKVQWKVDNALQSGNSQESVTEQDSKDSTYSLSSTLTLSKADYEKHKVYACEVTHQGLSSPVTKSFNRGEC

Tests used:
[1] = test system: NCI-H446 human cancer cell line; experiment: Cytotoxic activity (cell proliferation inhibition rate, xCELLigence) with human PBMCs; assay type: cell-based; conditions: human PBMCs as effector cells; NCI-H446 target cells; 72 hours
Description: Using a syringe preloaded with 100 μL of 1,000 units/mL heparin solution (Novo Heparin for injection, 5000 units, Novo Nordisk), 50 mL of peripheral blood was collected from each healthy volunteer (adult individual). This peripheral blood was diluted two-fold in PBS(−), divided into four aliquots, and added into a Leucosep tube for lymphocyte separation (Cat. No. 227290, Greiner Bio-One) that had been loaded with 15 mL of Ficoll-Paque PLUS and subjected to centrifugation in advance. This separation tube was centrifuged (at 2150 rpm for ten minutes at room temperature), and then the mononuclear cell fraction was collected. The cells in the mononuclear cell fraction were washed once with the Dulbecco's Modified Eagle's Medium containing 10% FBS (manufactured by SIGMA, hereinafter referred to as 10% FBS/D-MEM), and then prepared to have a cell density of 4×10^6 cells/mL using 10% FBS/D-MEM. The cell suspension prepared this way was used as the human PBMC solution in the experiment below.
Cytotoxic activity was assessed by the rate of cell proliferation inhibition using the xCELLigence Real-Time Cell Analyzer (Roche Diagnostics). […]
Cytotoxic activity was measured by the method described in Reference Example 1-3-2.
CDR and FR were determined according to the Kabat definition (Kabat numbering). […]

human GPC3 = human GPC3 (Homo sapiens, UniProt P51654); experiment: Affinity for human GPC3 by surface plasmon resonance (Biacore T200); assay type: binding; conditions: soluble human GPC3; Table 13
Description: The activity to bind human GPC3 when using GL4 (SEQ ID NO: 41) and L0000 (SEQ ID NO: 53) as the L-chain variable regions was evaluated. This was performed using the molecular form of a single-arm antibody having a single Fab at the Fc region of a human IgG1 heterodimerized by the knobs-into-hole technique. H0000 (SEQ ID NO: 40) was used for the anti-GPC3 antibody H-chain variable region.
The affinity and binding rate constants of an anti-GPC3 antibody for an antigen were measured by the multi-cycle kinetics method of a surface plasmon resonance assay using Biacore™-T200 (GE Healthcare Japan). HBS-EP+(GE Healthcare Japan) was used for the running buffer, and an amine coupling kit (GE Healthcare Japan) was used to covalently bind Protein A/G to the CM5 chip (carboxymethyl dextran-coated chip). Each anti-GPC3 antibody was prepared so that approximately 100 RU will be captured by Protein A/G. Human GPC3 used as the analyte was prepared at 8, 16, 32, 64, and 128 nM using HBS-EP+. Measurements were carried out by first allowing Protein A/G to capture the antibody solution, and then injecting the human GPC3 solution at a flow rate of […] for three minutes to allow reaction to take place. Then, the solution was switched to HBS-EP+ and the dissociation phase was measured for 15 minutes. After completion of the dissociation phase measurement, the sensor chip was regenerated by washing with 10 mM Gly-HCl at pH 1.5. Measurement at the concentration of 0 was similarly carried out by allowing Protein A/G to capture the antibody solution, performing a three-minute HBS-EP+ injection to allow reaction to take place, and then switching to HBS-EP+ to measure the dissociation phase for 15 minutes. […]
CDR and FR were determined according to the Kabat definition (Kabat numbering).
First, point mutations were introduced into CDR1, CDR2, and CDR3 of the anti-human GPC3 bispecific antibody sequence produced in Reference Example 2, H0000-ERY27_HK (SEQ ID NO: 54), to prepare modified antibodies. Next, the affinity of these modified antibodies for soluble human GPC3 was determined.

Chain of human GPC3 (P51654 25-563 limits assumed): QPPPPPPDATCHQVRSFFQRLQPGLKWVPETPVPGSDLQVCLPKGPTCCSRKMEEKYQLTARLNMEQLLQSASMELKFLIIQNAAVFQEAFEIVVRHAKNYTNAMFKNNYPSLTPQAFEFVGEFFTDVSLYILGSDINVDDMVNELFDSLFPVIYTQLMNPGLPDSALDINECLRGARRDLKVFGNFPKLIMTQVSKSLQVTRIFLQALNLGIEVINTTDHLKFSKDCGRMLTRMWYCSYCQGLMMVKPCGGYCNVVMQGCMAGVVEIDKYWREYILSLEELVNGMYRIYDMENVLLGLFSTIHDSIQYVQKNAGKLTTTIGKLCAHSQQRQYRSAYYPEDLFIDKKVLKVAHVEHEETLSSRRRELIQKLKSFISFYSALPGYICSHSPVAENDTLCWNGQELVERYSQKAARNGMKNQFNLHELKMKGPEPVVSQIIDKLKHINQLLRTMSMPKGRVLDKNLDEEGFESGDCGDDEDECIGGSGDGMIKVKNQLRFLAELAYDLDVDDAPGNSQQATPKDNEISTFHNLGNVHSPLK

Molecule	cytotoxic activity (T-cell-dependent cellular cytotoxicity) [1]	Kd (human GPC3) [nM]
B1	very strong activity	–
B2	–	4.57
